Test results as given in article PMC4477602 (Journal of Biological Engineering, 2015).

Biological target: T1, Wild type Clone A, soluble, C-terminal His6
T1 chain: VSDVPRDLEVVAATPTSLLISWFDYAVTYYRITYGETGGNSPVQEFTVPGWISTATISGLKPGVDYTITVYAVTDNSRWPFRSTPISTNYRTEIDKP
Test: SEC; Superdex 75 10/300 GL, PBS pH 7.4, samples after Co2+ affinity resin; self-association (monomer, dimer, high MW oligomer in the void volume)
Conditions: both partners purified

- stoichiometry N: 2
B1: Wild type Clone A, soluble, C-terminal His6 (designed binder)
chain: VSDVPRDLEVVAATPTSLLISWFDYAVTYYRITYGETGGNSPVQEFTVPGWISTATISGLKPGVDYTITVYAVTDNSRWPFRSTPISTNYRTEIDKP
modifications: Glu47 (printed 45) taken from the text's description of wild type CA; Fig. S2 prints Asp / Glu47 (printed 45) taken from the text's description of wild type CA; Fig. S2 prints Asp
